According to paper PMC3528108:
Like-named read-outs stand apart in the source and are kept apart here.

B1: TERRA-mut (ssRNA)
RNA: UUACCGUUACCGUUACCGUUACCG
B2: NRAS RNA G-quadruplex (structured_RNA)
RNA: AGGGAGGGGCGGGUCUGGG
B3: BCL2 RNA G-quadruplex (structured_RNA)
RNA: AGGGGGCCGUGGGGUGGGAGCUGGGG

Key:
GST-TRF2 [1] = target: T1, GST-TRF2 (human, UniProt Q15554 1-542); experiment: ELISA
GST-TRF2 [2] = target: T1, GST-TRF2; experiment: ELISA; remark: listed apart in the source

T1 sequence (Q15554 whole entry): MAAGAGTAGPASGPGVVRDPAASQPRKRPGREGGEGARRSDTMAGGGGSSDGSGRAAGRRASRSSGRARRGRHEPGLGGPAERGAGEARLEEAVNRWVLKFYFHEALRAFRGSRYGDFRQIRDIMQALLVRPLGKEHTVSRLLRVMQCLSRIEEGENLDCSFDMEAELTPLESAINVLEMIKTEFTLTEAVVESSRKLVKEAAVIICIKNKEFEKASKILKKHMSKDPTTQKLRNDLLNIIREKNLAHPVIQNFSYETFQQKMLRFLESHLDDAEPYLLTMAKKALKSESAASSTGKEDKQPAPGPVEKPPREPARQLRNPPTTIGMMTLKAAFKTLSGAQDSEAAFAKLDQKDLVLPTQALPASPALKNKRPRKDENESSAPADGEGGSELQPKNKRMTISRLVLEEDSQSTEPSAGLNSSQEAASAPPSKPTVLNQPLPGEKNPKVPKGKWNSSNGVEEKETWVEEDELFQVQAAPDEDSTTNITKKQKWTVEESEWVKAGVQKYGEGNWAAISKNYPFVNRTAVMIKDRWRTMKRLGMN

Binder | binding result (GST-TRF2 [1]) | binding result (GST-TRF2 [2])
B1 | no binding | –
B2 | – | binds
B3 | – | binds
